These results are taken from paper PMC11602143, “Human selenocysteine synthase, SEPSECS, has evolved to optimize binding of a tRNA-based substrate” (Nucleic Acids Research, 2024).

The data set deals with the molecule itself. As to the kind of experiment: SEC-MALS; protein alone, 250 μl at 1 and 4 mg/ml on Superose 6 Increase 10/300; 20 mM Tris pH 8.0, 150 mM NaCl, 5% glycerol, 0.5 mM TCEP, 10 μM PLP; oligomeric state of the holoenzyme.

B1: Δ470 SEPSECS (human SEPSECS with Asp470 mutated to a stop codon) (domain or fragment, UniProt Q9HD40 1-469, looked up)
chain: MNRESFAAGERLVSPAYVRQGCEARRSHEHLIRLLLEKGKCPENGWDESTLELFLHELAIMDSNNFLGNCGVGEREGRVASALVARRHYRFIHGIGRSGDISAVQPKAAGSSLLNKITNSLVLDIIKLAGVHTVANCFVVPMATGMSLTLCFLTLRHKRPKAKYIIWPRIDQKSCFKSMITAGFEPVVIENVLEGDELRTDLKAVEAKVQELGPDCILCIHSTTSCFAPRVPDRLEELAVICANYDIPHIVNNAYGVQSSKCMHLIQQGARVGRIDAFVQSLDKNFMVPVGGAIIAGFNDSFIQEISKMYPGRASASPSLDVLITLLSLGSNGYKKLLKERKEMFSYLSNQIKKLSEAYNERLLHTPHNPISLAMTLKTLDEHRDKAVTQLGSMLFTRQVSGARVVPLGSMQTVSGYTFRGFMSHTNNYPCAYLNAASAIGMKMQDVDLFIKRLDRCLKAVRKERSKES
notes: Human SEPSECS truncated by a stop codon at the position of Asp470 (removes the α15–α16 loop and α16); made from pET15b-hWTSSS by site-directed mutagenesis; Same vector and purification as the wild type; also called Δ470 human SEPSECS; truncated mutant
Take B1: the “stoichiometry N” value was 4.

B2: Human SEPSECS (O-phosphoseryl-tRNA^Sec selenium transferase), wild type (enzyme)
chain: MNRESFAAGERLVSPAYVRQGCEARRSHEHLIRLLLEKGKCPENGWDESTLELFLHELAIMDSNNFLGNCGVGEREGRVASALVARRHYRFIHGIGRSGDISAVQPKAAGSSLLNKITNSLVLDIIKLAGVHTVANCFVVPMATGMSLTLCFLTLRHKRPKAKYIIWPRIDQKSCFKSMITAGFEPVVIENVLEGDELRTDLKAVEAKVQELGPDCILCIHSTTSCFAPRVPDRLEELAVICANYDIPHIVNNAYGVQSSKCMHLIQQGARVGRIDAFVQSLDKNFMVPVGGAIIAGFNDSFIQEISKMYPGRASASPSLDVLITLLSLGSNGYKKLLKERKEMFSYLSNQIKKLSEAYNERLLHTPHNPISLAMTLKTLDEHRDKAVTQLGSMLFTRQVSGARVVPLGSMQTVSGYTFRGFMSHTNNYPCAYLNAASAIGMKMQDVDLFIKRLDRCLKAVRKERSKESDDNYDKTEDVDIEEMALKLDNVLLDTYQDASS
notes: Human SEPSECS, wild type, cloned into pET15b (pET15b-hWTSSS); no tag cleavage is described in the purification; PLP cofactor is present in the buffers; also called WT SEPSECS; human WT SEPSECS
With B2, the “stoichiometry N” value is 4.
